# Target: T1, MBP fusion protein of the carboxyl-terminal domain of Gle1 (MBP-Gle1C; amino acid residues 244-611)
# T1 chain: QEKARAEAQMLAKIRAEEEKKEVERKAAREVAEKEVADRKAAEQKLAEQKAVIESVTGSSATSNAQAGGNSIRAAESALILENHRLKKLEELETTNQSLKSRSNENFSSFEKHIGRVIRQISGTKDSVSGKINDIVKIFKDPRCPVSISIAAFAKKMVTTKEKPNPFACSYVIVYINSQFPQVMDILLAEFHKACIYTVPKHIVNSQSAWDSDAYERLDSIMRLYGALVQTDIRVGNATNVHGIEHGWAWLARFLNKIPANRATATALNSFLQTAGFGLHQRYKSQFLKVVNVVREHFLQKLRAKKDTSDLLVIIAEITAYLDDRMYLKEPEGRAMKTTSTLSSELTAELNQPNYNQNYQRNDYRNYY
protein,measurement,value
6x-histidine-fused LOS4 (LOS4-His) (protein) MADTVEKVPTVVESSSSSTVEASNSAEKTEPTTEKKKWGDVEDDDDEEEAVSELNSLSIKEEEKPDSILEEPEDSNIKAVTSGDTPYTSASRFEDLNLSPELMKGLYVEMKFEKPSKIQAISLPMIMTPPHKHLIAQAHNGSGKTTCFVLGMLSRVDPTLREPQALCICPTRELANQNMEVLQKMGKFTGITAELAVPDSTRGAPAATRGAPVSAHVVIGTPGTLKKWMAFKRLGLNHLKILVFDEADHMLATDGFRDDSLKIMKDIGRVNPNFQVLLFSATFNETVKDFVARTVKDPNQLFVKREDLALDSVKQYKVVCPKEQNKIEVIKDQIMELGDIGQTIIFVKTKASAQKVHKALAEMGYDVTSVHGNLTESDRDKIVKEFKECLTQVLIATDVIARGFDQQRVNLVVNYNLPTKYETGEPDYEVYLHRVGRAGRFGRKGAVFNLLLDDGWDKEVMEKIEKYFEANVKEIKSWNSEEEYKSALKEAGLLDEHHHHHH,"apparent kcat of LOS4-His with MBP-Gle1C (2 µM MBP-Gle1C, 1 µM LOS4-His)","the apparent kcat values for LOS4-His alone and LOS4-His with MBP-Gle1C were calculated to be 0.267 and 0.565 sec^-1, respectively"
same,"fold increase in the overall catalytic rate of LOS4 (kcat against LOS4-His alone, 0.267 sec^-1)",an approximately two-fold increase in the overall catalytic rate of LOS4 by Gle1

# Reference: patent publication US20180119166
